Target: the molecule itself
Test: cryo-EM structure; 150 nM biotinylated dynein^E2488Q, 650 nM Lis1, 1.2 mM ATP, 1.2 mM Na3VO4, on streptavidin affinity grids; 4.1 Å map (C2), 3.6 Å after symmetry expansion

B1: S. cerevisiae Lis1 (Pac1) (natural protein)
chain: MTNWQQQLPLTDTQKNELDKSVLRYLNWNYKQTVRHEHAQDYESVRHAIVTLSGFLLQESVDRQEFISNNDTSNESMVDIDELLLPKKWNSIVRLQKKIIELEQNTETLVSQIKDLNTQVSELAQFKPTTSNGTSAHNVLKWIPRNLPSCLINVESSVTSVKLHPNLPIVFVATDHGKLYAFDLFNYTIPLASLQSHTKAITSMDVLFTNYTNSSKKNYLVIVTASKDLQIHVFKWVSEECKFQQIRSLLGHEHIVSAVKIWQKNNDVHIASCSRDQTVKIWDFHNGWSLKTFQPHSQWVRSIDVLGDYIISGSHDTTLRLTHWPSGNGLSVGTGHEFPIEKVKFIHFIEDSPEIRFRTPSTDRYKNWGMQYCVSASRDRTIKIWEIPLPTLMAHRAPIPNPTDSNFRCVLTLKGHLSWVRDISIRGQYLFSCADDKSVRCWDLNTGQCLHVWEKLHTGFVNCLDLDVDFDSNVTPRQMMVTGGLDCKSNVFMR
notes: Lis1 (Pac1), S. cerevisiae; a dimer; only the β-propellers are spoken of in the structure; also called yeast Lis1; source: S. cerevisiae, purified (Ni-NTA, IgG Sepharose, TEV cleavage)
binding result: binds
